For data set [1], the target named is the 23-mer peptide. In words: BIAcore; format not described. On the technique in general: Surface plasmon resonance follows binding to a sensor surface in real time, without labels.
Data set [2] addresses CD31shed (residual cell-bound human CD31 after shedding between the 5th and 6th extracellular Ig-like domains) (human) (UniProt P16284). In words: 10-colour flow cytometry on human peripheral blood leukocytes of a healthy donor, WM59-PE against PECAM 1.2-FITC; gate 3 (CD8) = naive CD8+ T cells. On the technique in general: In flow cytometry, cells or beads pass a laser one at a time.

Data set [3] shares this target. As to the kind of experiment: 10-colour flow cytometry on human peripheral blood leukocytes of a healthy donor, WM59-PE against PECAM 1.2-FITC; gate 3 (CD4) = naive CD4+ T cells.
For data set [4] the target is unchanged. As to the kind of experiment: 10-colour flow cytometry on human peripheral blood leukocytes of a healthy donor, WM59-PE against PECAM 1.2-FITC; gate 2 (CD8) = memory CD8+ T cells.
Data set [5] shares this target. In words: 10-colour flow cytometry on human peripheral blood leukocytes of a healthy donor, WM59-PE against PECAM 1.2-FITC; gate 1 (CD4) = activated CD4+ T cells.
The target is the same in data set [6]. In words: 10-colour flow cytometry on human peripheral blood leukocytes of a healthy donor, WM59-PE against PECAM 1.2-FITC; gate CD20 = B lymphocytes.
Data set [7] has as its target human CD31 (PECAM-1) (human) (UniProt P16284). In words: 10-colour flow cytometry on human peripheral blood leukocytes of a healthy donor, WM59-PE against PECAM 1.2-FITC; gate 3 (CD8) = naive CD8+ T cells.
Data set [8] shares this target. In words: 10-colour flow cytometry on human peripheral blood leukocytes of a healthy donor, WM59-PE against PECAM 1.2-FITC; gate 3 (CD4) = naive CD4+ T cells.
Data set [9] shares this target. As to the kind of experiment: 10-colour flow cytometry on human peripheral blood leukocytes of a healthy donor, WM59-PE against PECAM 1.2-FITC; gate 2 (CD8) = memory CD8+ T cells.
The target is the same in data set [10]. As to the kind of experiment: 10-colour flow cytometry on human peripheral blood leukocytes of a healthy donor, WM59-PE against PECAM 1.2-FITC; gate 1 (CD4) = activated CD4+ T cells.
The target is the same in data set [11]. As to the kind of experiment: 10-colour flow cytometry on human peripheral blood leukocytes of a healthy donor, WM59-PE against PECAM 1.2-FITC; gate CD20 = B lymphocytes.
Data set [12] deals with the molecule itself. In words: SPR (BIAcore 2000), peptide coated on CM5 chip, same peptide injected at 12.5-100 µM. As for the experimental part: Plasmon Surface Resonance. Homophilic binding association and dissociation constants were calculated by surface plasmon resonance (BIAcore® 2000, GE). […] Dissociation was monitored for 300 seconds. Association (kon) and dissociation (koff) constants were calculated using the BIAevaluation 3.0 Software (GE).

The record followed here is patent publication US20190177396A1 (INSERM INSTITUTE NATIONAL DE LA SANTE ET DE LA RECHERCHE …, published 2019).

Broadly, the Kd is a measure of binding affinity in units of concentration. In the case of “alternatively spliced soluble CD31 (receptor)”, the Kd in [1] came out at 17 µM.

With “anti-CD31 monoclonal antibody clone PECAM 1.2”, the percent of gated cells in the lower right quadrant (dom1-/dom6+) in data set [2] worked out at 23.5; in data set [3], 28.1; in data set [4], 29.7; in [5], 90.6; in data set [6], 12.

For “anti-CD31 monoclonal antibody clone WM-59”, the percent of gated cells in the upper right quadrant (dom1+/dom6+) turned out to be 76.5 in [7]; 71.9 in data set [8]; 70.3 in data set [9]; 9.4 in data set [10]; 88 in data set [11].

B1: mouse CD31 peptide 551-574 (peptide)
peptide: SSMRTSPRSSTLAVRVFLAPWKK
notes: Synthetic peptide, juxta-membrane 23 amino acids of the mouse CD31 ectodomain; In the SPR assay it was both coated on the CM5 chip and injected as analyte
For orientation: koff means the first-order rate constant of dissociation. Read a low koff as a long-lived complex. In general, kon refers to the second-order rate constant of association. A high value points to faster complex formation. In data set [12], B1 came in with a Kd of 17.8 µM, a dissociation rate constant (koff) of 0.00158 s⁻¹ and a kon of 134 M⁻¹ s⁻¹.
